Drawing on publication PMC3064480, this text covers IC50 and Kd for four molecules.

In assay [1] the target is Recombinant human TβRII-ED (residues 1-137) (human). Kind of assay: ELISA.
For assay [2], the target named is Recombinant human TβRI-ED (residues 1-101) (human). Kind of assay: ELISA.

Sequence of Recombinant human TβRII-ED (residues 1-137) (human) (P37173 whole entry, the tested form may be a part): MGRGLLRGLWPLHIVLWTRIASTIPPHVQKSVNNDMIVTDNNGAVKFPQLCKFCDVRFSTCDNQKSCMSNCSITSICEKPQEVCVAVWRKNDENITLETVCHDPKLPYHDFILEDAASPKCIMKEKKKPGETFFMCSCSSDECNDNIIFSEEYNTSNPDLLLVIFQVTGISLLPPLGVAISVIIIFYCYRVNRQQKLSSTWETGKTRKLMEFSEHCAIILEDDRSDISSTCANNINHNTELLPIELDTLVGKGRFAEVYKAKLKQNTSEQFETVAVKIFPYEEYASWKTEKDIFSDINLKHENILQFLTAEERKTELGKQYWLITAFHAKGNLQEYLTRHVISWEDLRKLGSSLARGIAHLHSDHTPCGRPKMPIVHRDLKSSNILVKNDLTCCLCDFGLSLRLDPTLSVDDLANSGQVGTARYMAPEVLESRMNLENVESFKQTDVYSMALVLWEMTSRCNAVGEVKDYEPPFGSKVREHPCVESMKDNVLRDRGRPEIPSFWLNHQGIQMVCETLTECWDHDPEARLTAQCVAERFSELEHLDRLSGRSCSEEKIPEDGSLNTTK

MHRMPSFLPTTL [Pep2 (synthetic peptide …)]: in assay [1], the IC50 stood at 274 µM and the Kd came out at 10 µM. Further, in assay [2], the IC50 is 256 µM and the Kd came to 10 µM.

For the molecule LTGKNFPMFHRN [Pep1 (synthetic peptide …)], in assay [1], the IC50 was 156 µM and the Kd is 10 µM. Moreover, in assay [2], the IC50 was 110 µM and the Kd stood at 10 µM.

Take LTGKNFPMFHRN [phage clone 1 (M13 phage displaying … on the N-terminus of the PIII protein)]: the Kd in assay [2] turned out to be 0.0001 µM.

For MHRMPSFLPTTL [phage clone 2 (M13 phage displaying … on the N-terminus of the PIII protein)], the Kd in assay [2] is 0.0001 µM.
